Substitutions are numbered along the chain they refer to.
B1: parent antibody A2 (antibody, V domains shown)
VH: QVQLVESGGGLVKPGGSLRLSCAASGFTFSDDYMSWIRQAPGKGLEWVASVSNGRPTTYYADSVRGRFTISRDNAKNSLYLQMNSLRAEDTAVYYCAREDWGGEFTDWGRGTLVTVSS
VL: QAGLTQPPSASGTSGQRVTISCSGSSSNIGINFVYWYQHLPGTAPKLLIYKNNQRPSGVPDRFSGSKSGNSASLAISGLRSEDEADYYCAAWDDSLSGYVFGSGTKVTVL
notes: Only variable domains are tied to A2; also called A2-IgG1; anti-CD38-A2 parent antibody
B2: variant antibody 3H10m1 (antibody, V domains shown)
VH: B1 VH with D100G, G102S, R110Q
VL: B1 VL with I31F, N32H
B3: variant antibody 3G3 (antibody, V domains shown)
VH: B1 VH with D100A, G102S, R110Q
VL: B1 VL
B4: variant antibody 3E10 (antibody, V domains shown)
VH: B1 VH
VL: B1 VL with I31F, N32H
notes: it was captured by anti-human Fc in SPR

Columns and labels:
[1] = molecular target: T1, cynomolgus CD38 on cynomolgus monkey T cells (cynomolgus monkey, UniProt Q5VAN0 1-300); assay: flow cytometry on cynomolgus peripheral blood lymphocytes co-stained with anti-CD3 FITC
T1 construct: Native CD38 on peripheral blood lymphocytes from cynomolgus monkey blood, co-stained with anti-CD3 FITC; also called cynomolgus T cells

[2] = molecular target: T2, recombinant cynomolgus CD38/His-tag (Sino Biological, catalog #90050-C08H) (cynomolgus monkey, UniProt Q5VAN0 44-300); assay: ELISA, His-tagged CD38 captured on Ni-NTA plate, antibody about 1 µg/mL
T2 construct: Bought protein; also called cynomolgus CD38 protein; not shown: His-tag

[3] = molecular target: T3, recombinant mouse CD38/His-tag (Sino Biological, catalog #50191-M08H) (mouse, UniProt P56528 45-304); assay: ELISA, His-tagged CD38 captured on Ni-NTA plate, HRP anti-human Fc, OD 450 nm
T3 construct: Bought protein; also called murine CD38 protein; not shown: His-tag
T3 sequence: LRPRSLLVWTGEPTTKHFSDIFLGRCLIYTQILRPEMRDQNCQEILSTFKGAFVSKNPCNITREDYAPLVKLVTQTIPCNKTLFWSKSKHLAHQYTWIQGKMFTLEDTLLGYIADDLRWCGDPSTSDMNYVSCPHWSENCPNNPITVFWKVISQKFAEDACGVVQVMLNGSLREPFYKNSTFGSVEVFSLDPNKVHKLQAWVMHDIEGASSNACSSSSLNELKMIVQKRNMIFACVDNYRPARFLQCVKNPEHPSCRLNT

[4] = molecular target: human CD38 on cells (Raji, Ramos, RPMI 8226, human T cells) (human, UniProt P28907 1-300); assay: flow cytometry on non-activated or activated human T cells, 10, 1 or 0.1 µg/mL

Binder | binding result [1] | binding result [2] | binding result [3] | binding result [4]
B1 | binds | binds | no binding (tested: about 1 µg/mL) | –
B2 | binds | – | – | –
B3 | binds | – | – | –
B4 | – | – | – | binds
